T1: BMP receptor type 2 (UniProt Q13873 27-150)
T1 construct: BMP receptor type 2 (BMPR2); No catalogue number is printed; also called BMPR2; source: bought: Thermo Fisher Scientific Co
T1 sequence (looked up): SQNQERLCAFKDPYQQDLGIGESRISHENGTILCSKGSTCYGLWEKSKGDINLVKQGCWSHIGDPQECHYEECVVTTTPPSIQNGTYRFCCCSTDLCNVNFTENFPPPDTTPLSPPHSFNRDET

B1: BMP receptor type 1B (receptor, UniProt O00238 14-126, looked up)
chain: KKEDGESTAPTPRPKVLRCKCHHHCPEDSVNNICSTDGYCFTMIEEDDSGLPVVTSGCLGLEGSDFQCRDTPIPHQRRSIECCTERNECNKDLHPTLPPLKNRDFVDGPIHHR
notes: BMP receptor type 1B (BMPR1B); No catalogue number is printed; also called BMPR1B; source: bought: Thermo Fisher Scientific Co
B2: Chinese hamster ovary cell-derived recombinant human bone morphogenetic protein-2 (ligand, UniProt P12643 283-396, looked up)
chain: QAKHKQRKRLKSSCKRHPLYVDFSDVGWNDWIVAPPGYHAFYCHGECPFPLADHLNSTNHAIVQTLVNSVNSKIPKACCVPTELSAISMLYLDENEKVVLKNYQDMVVEGCGCR
modifications: N-glycan (position not given)
notes: Bone morphogenetic protein 2 (BMP-2), human, CHO cell-derived, glycosylated; also called C-rhBMP-2; CHO cell-derived rhBMP-2; source: CHO cell-derived; bought: National Institute for Biological Standards and Control
B3: Escherichia coli-derived recombinant human bone morphogenetic protein-2 (ligand, UniProt P12643 283-396, looked up)
chain: B2 chain
notes: Bone morphogenetic protein 2 (BMP-2), human; no glycans; Not glycosylated (made in E. coli); an added N-terminal methionine is not spoken of; also called E-rhBMP-2; E. coli-derived rhBMP-2; source: E. coli-derived; provided by Daewoong Pharmaceutical Co., Ltd

Columns and labels:
Experiment in all cases: SPR; Biacore T200; rhBMP-2 (ligand) immobilised by EDC/NHS coupling, target level 500 RU, in 10 mM sodium acetate pH 6.0; receptors as analytes, 10-2000 nM, 30 µL/min, 120 s association and 120 s dissociation; 1:1 binding model
Conditions in all cases: both partners purified
[1] = target: B3
[2] = target: B2
BMP receptor type 2 = target: T1, BMP receptor type 2

Kd [1] [nM]	kon [1] [M⁻¹ s⁻¹]	Kd [2] [nM]	kon [2] [M⁻¹ s⁻¹]	Kd (BMP receptor type 2) [nM]	Binder
194	1960	74.3	3470		B1
				141	B2
				140	B3
